Source: US20070286858A1 (Pfizer, published 2007)

Legend:
[1] = target: T1, murine RAGE-strep tag fusion protein (mouse, UniProt Q62151 23-343); experiment: ELISA, mRAGE-strep
T1 construct: also called mRAGE-strep; mRAGE-SA
T1 chain: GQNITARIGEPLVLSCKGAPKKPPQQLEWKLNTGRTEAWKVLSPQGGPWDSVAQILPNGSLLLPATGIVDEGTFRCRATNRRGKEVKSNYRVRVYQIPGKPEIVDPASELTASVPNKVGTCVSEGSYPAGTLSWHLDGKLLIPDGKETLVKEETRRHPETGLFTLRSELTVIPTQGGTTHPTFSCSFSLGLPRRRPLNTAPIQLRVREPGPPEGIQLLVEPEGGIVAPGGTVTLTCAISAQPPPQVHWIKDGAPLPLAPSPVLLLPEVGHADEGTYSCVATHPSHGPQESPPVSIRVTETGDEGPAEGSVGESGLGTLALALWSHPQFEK

[2] = target: T2, human RAGE-Fc fusion protein (human, UniProt Q15109 23-344); experiment: direct binding ELISA, coated hRAGE-Fc
T2 construct: also called hRAGE-Fc; huRAGE-Fc; not shown: Fc domain of human IgG
Procedure: Antibodies were purified from hybridoma supernatants using standard procedures. Purified antibodies were evaluated for binding to soluble forms of RAGE with the use of ELISA. […] After washing and blocking with PBS containing 1% BSA and 0.05% Tween-20, 100 ul of sample (samples were in several forms: diluted immune serum, hybridoma supernatants, or purified antibodies, as indicated) was added and incubated for 1 hour at room temperature. The plates were washed with PBS, pH 7.2 and bound anti-RAGE antibodies were detected with the use of peroxidase-conjugated goat, anti-mouse IgG (H+L) (IgG) (Pierce, Rockford, Ill.) followed by incubation with the substrate TMB (BioFX Laboratories Owings Mills, Md. Laboratories). Absorbance values were determined at 450 nm in a spectrophotometer. The concentrations of monoclonal antibodies were determined with the use of peroxidase-labeled goat, anti-mouse IgG (Fcγ) (Pierce Rockford, Ill.) and a standard curve was generated by a purified, isotype-matched mouse IgG.

[3] = target: T2, human RAGE-Fc fusion protein; experiment: BIACORE direct binding, hRAGE-Fc immobilized
Procedure: The binding of selected murine and rat anti-RAGE antibodies to human and murine RAGE and to the V domains of human and murine RAGE was analyzed by BIACORE® direct binding assay. […] Solution of the anti-RAGE antibodies at two concentrations, 50 and 100 nm, were run over the immobilized RAGE-Fc proteins in duplicate. BIACORE™ technology utilizes changes in the refractive index at the surface layer upon binding of the anti-RAGE antibodies to the immobilized RAGE antigen. Binding is detected by surface plasmon resonance (SPR) of laser light refracting from the surface.
The kinetic rate constants (kₐ and kd) and association and dissociation constants (Kₐ and Kd) for the binding of murine and rat anti-RAGE antibodies to human and murine RAGE were determined by BIACORE™ direct binding assay. Analysis of the signal kinetics data for on-rate and off-rate allows the discrimination between non-specific and specific interactions.

[4] = target: T3, human RAGE, full length (human, UniProt Q15109 23-404); experiment: cell-based ELISA, 293 cells transfected with human RAGE
T3 construct: Expressed on 293 or CHO cells, or endogenous in human lung sections; also called hRAGE; cell-surface hRAGE
Procedure: (§1) Human embryonic kidney 293 cells (American Tissue Type Culture, Manassas, Va.) cells were plated at 5×10⁶ cells per 10 cm² tissue culture plate and cultured overnight at 37° C. The next day cells were transfected with RAGE expression plasmids (pAdori1-3 vector encoding mouse, human, baboon, cynomologus monkey or rabbit RAGE) using LF2000 reagent (Invitrogen, Carlsbad Calif.) at a 4:1 ratio of reagent to plasmid DNA using the manufacturers protocol. Cells were harvested 48 hrs post-transfection using trypsin, washed once with phosphate buffered saline (PBS), then suspended in growth media without serum at a concentration of 2×10⁶ cells/ml.
(§2) Primary antibodies at 1 μg/ml were serially diluted at 1:2 or 1:3 in PBS containing 1% bovine serum albumin (BSA) in a 96-well plate. RAGE-transfected 293 cells or control parental 293 cells (50 μl) at 2×10⁶ cells/ml in serum-free growth medium were added to U-bottom 96 well plate for a final concentration of 1×10⁵ cells/well. The cells were centrifuged at 1600 rpm for 2 minutes. The supernatants were gently discarded by hand with a one-time swing and the plate was patted gently to loose the cell pellet. […] The cells were centrifuged and the supernatants are transferred to a fresh plate and read at 450 nm (Soft MAX pro 4.0, Molecular Devices Corporation, Sunnyvale, Calif.).

[5] = target: T4, murine RAGE, full length (mouse, UniProt Q62151 23-402); experiment: cell-based ELISA, 293 cells transfected with murine RAGE
T4 construct: Expressed on 293 cells; also called mRAGE; 293-murine RAGE
T4 chain: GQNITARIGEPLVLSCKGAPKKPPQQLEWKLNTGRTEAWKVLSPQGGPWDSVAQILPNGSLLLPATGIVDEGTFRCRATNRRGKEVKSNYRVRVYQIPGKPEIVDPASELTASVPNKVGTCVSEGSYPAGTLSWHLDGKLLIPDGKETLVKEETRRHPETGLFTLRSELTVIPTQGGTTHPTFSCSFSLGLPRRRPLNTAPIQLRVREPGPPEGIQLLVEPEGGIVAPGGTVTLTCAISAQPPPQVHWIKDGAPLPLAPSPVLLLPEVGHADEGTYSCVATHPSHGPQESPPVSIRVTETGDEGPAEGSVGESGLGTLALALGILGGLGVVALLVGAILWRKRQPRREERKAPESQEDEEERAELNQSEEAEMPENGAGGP
Procedure: as §1, §2

[6] = target: T5, soluble human streptavidin-tagged RAGE (human, UniProt Q15109 23-344); experiment: BIACORE capture assay, antibody on CM5 chip, hRAGE-SA 0-100 nM in solution
T5 construct: also called hRAGE-SA; human RAGE-strep
Procedure: The assays were performed by coating antibodies onto a CM5 BIA chip with 5000-7000 RU.

binding result [1]: binds | EC50 [2]: 0.3 nM | Ka [3]: 1e+09 M⁻¹ | Kd [3]: 0.995 nM | koff [3]: 0.00116 s⁻¹ | kon [3]: 1.16e+06 M⁻¹ s⁻¹ | EC50 [4]: ~0.84 nM | EC50 [5]: ~2.2 nM | Ka [6]: 2.03e+08 M⁻¹ | Kd [6]: 4.92 nM | koff [6]: 0.0186 s⁻¹ | kon [6]: 3.78e+06 M⁻¹ s⁻¹
B1: XT-M4 (antibody, rat IgG2b, V domains shown)
VH: EVQLVESGGGLVQPGRSLKLSCVVSGFTFNNYWMTWIRQTPGKGLEWVASINNSGDNTYYPDSVKDRFTISRDNAKSTLYLQMNSLRSEDTATYYCTRGGDITTGFDYWGQGVMVTVSS
VL: DIQMTQSPSSMSVSLGDTITITCRASQDVGIYVNWFQQKPGKSPRRMIYRATNLADGVPSRFSGSRSGSIYSLTISSLESEDVADYHCLEFDEHPLTFGSGTKVEIK
notes: also called 1mRAGEP3/10; rat XT-M4
